Assay results from patent publication US9873883B2, “Glyphosate resistant plants and associated methods” (Dow AgroSciences LLC, priority 2012, dated 2018).
Changes are numbered by the printed parent chain. Numbers in names are those of the source. Where “and” joins values, the source holds several entries; their conditions need not be identical. Identical values can stand only once.

Tests used:
[1] = substrate: C=C(OP(=O)(O)O)C(=O)O; test: purified protein, by the assay type; details: other: pH 7.5, 1 mM S3P
[2] = substrate: C=C(OP(=O)(O)O)C(=O)O; test: In vitro kinetic assay (inorganic phosphate production, malachite green); assay type: biochemical, Triticum aestivum; details: other: pH 7.5, 1 mM S3P
Description: The following Class I enzymes: DGT-1 from Glycine max, DGT-3 from Brassica napus (GENBANK ACC NO: P17688), and DGT-7 from Triticum aestivum (GENBANK ACC NO: EU977181) were used as a comparison. The Class I EPSP synthase enzymes and mutant variants thereof were synthesized and evaluated. A mutation introduced into the plant EPSP synthase enzymes consisted of the Glycine to Alanine mutation made within the EPSP synthase enzyme at a similar location as that of the G96A mutation from the E. coli version of the enzyme. In addition, Threonine to Isoleucine and Proline to Serine mutations were introduced within these Class I EPSP synthase enzymes at analogous positions as that of amino acid 97 (T to I) and amino acid 101 (P to S) in the EPSP synthase of E. coli as described in Funke et al., (2009).
The location of the amino acid residue which was mutated from glycine to alanine is indicated by the first asterisk. The location of the amino acid residue which was mutated from threonine to isoleucine is indicated by the second asterisk. The location of the third amino acid residue which was mutated from proline to serine is indicated by the third asterisk. These mutations were introduced into different versions of DGT-1, DGT-3, and DGT-7. The different versions of the genes which contain the mutations are described in more detail below.
Additional constructs containing the dgt-1, dgt-3 and dgt-7 were synthesized. These constructs were used for in vitro testing of the dgt-1 v5, dgt-1 v6, dgt-1 v7, dgt-1 v8, dgt-3 v6, dgt-3 v7, dgt-3 v8, dgt-7 v5, dgt-7 v6, dgt-7 v7, and dgt-7 v8 gene sequences were outsourced to GeneArt for synthesis and cloning. The synthesized genes were cloned into the pET28 expression vector. The resulting constructions were labeled as pDAB102028 containing dgt-1 v5, pDAB102029 containing dgt-1 v6, pDAB102032 containing dgt-1 v7, pDAB102034 containing dgt-1 v8, pDAB100429 containing dgt-3 v6, pDAB100442 containing dgt-3 v7, pDAB100430 containing dgt-3 v8, pDAB102036 containing dgt-7 v5, pDAB102038 containing dgt-7 v6, pDAB102040 containing dgt-7 v7, and pDAB102042 containing dgt-7 v8.
Recombinant DGT proteins were overexpressed in Rosetta2™ (DE3) cells (Novagen, Madison, Wis.) from the constructs described above. A single colony was used to inoculate 50 mL starter cultures of LB containing chloramphenicol (25 μg/mL) and kanamycin (50 μg/mL) which were cultivated overnight at 37° C. The overnight cultures were used to inoculate 1 L of LB containing chloramphenicol (25 μg/mL) and kanamycin (50 μg/mL). The cultures were grown at 37° C. to an O.D.600=0.6 then placed in an ice water bath for 10 minutes. Expression of the target proteins was achieved by addition of IPTG to a final concentration of 500 μM. Induction was allowed to proceed overnight at 20° C. followed by harvesting via centrifugation at 8,000 rpm for 20 minutes. The cell pellets were stored at −80° C. until required for purification. All purification steps were carried out at 4° C.
Cell pellets from 1 L cultures were resuspended in 20-30 mL Buffer A (50 mM HEPES pH 7.5, 150 mM KCl, 2 mM DTT, 1 mM EDTA, 20 mM imidazole, and 5% glycerol). COMPLETE™ protease inhibitor cocktail (1 tablet/50 mL, Roche, Indianapolis, Ind.) and lysozyme (1 mg/mL, Sigma-Aldrich, St. Louis, Mo.) were then added and the suspension was stirred for 20 minutes. Cell lysis was performed using a Branson Sonifier 250 (3×60 second bursts) followed by removal of the cell debris by centrifugation at 16,000 rpm for 45 minutes. […]

B1: Glycine max (soybean) EPSP synthase DGT-1 v5, native, SEQ ID NO: 59 (Glycine max) (protein)
chain: MASVAAAEKPSTSPEIVLEPIKDFSGTITLPGSKSLSNRILLLAALSEGTTVVDNLLYSEDIHYMLGALRTLGLRVEDDKTTKQAIVEGCGGLFPTSKESKDEINLFLGNAGTAMRPLTAAVVAAGGNASYVLDGVPRMRERPIGDLVAGLKQLGADVDCFLGTNCPPVRVNGKGGLPGGKVKLSGSVSSQYLTALLMAAPLALGDVEIEIVDKLISVPYVEMTLKLMERFGVSVEHSGNWDRFLVHGGQKYKSPGNAFVEGDASSASYLLAGAAITGGTITVNGCGTSSLQGDVKFAEVLEKMGAKVTWSENSVTVSGPPRDFSGRKVLRGIDVNMNKMPDVAMTLAVVALFANGPTAIRDVASWRVKETERMIAICTELRKLGATVEEGPDYCVITPPEKLNVTAIDTYDDHRMAMAFSLAACGDVPVTIKDPGCTRKTFPDYFEVLERLTKH
Km [1]: 70 µM and 73.0 µM

B2: Triticum aestivum (wheat) EPSP synthase DGT-7 v5, native (GENBANK EU977181), SEQ ID NO: 60 (Triticum aestivum) (protein)
chain: MATSVAAPAAPSGAEEVVLQPIREISGAVQLPGSKSLSNRILLLSALSEGTTVVDNLLNSEDVHYMLEALEALGLSVEADKVAKRAVVVGCGGRFPVEKDAQEEVKLFLGNAGTAMRPLTAAVVAAGGNATYVLDGVPRMRERPIGDLVVGLQQLGADADCFLGTNCPPVRINGKGGLPGGKVKLSGSISSQYLSSLLMAAPLALEDVEIEIIDKLISVPYVEMTLKLMERFGVTAEHSDSWDRFYIKGGQKYKSPGNAYVEGDASSASYFLAGAAITGGTVTVEGCGTTSLQGDVKFAEVLEMMGAKVTWTDTSVTVTGPPRQPFGRKHLKAVDVNMNKMPDVAMTLAVVALFADGPTAIRDVASWRVKETERMVAIRTELTKLGATVEEGPDYCIITPPEKLNITAIDTYDDHRMAMAFSLAACAEVPVTIRDPGCTRKTFPNYFDVLSTFVKN
Km [1]: 75.6 µM

B3: Triticum aestivum (wheat) EPSP synthase DGT-7 variant DGT-7 v7 (G→A, P→S; GAPS) (Triticum aestivum; G167A/P172S) (protein)
chain: B2 chain with G113A, P118S
notes: GAPS double mutant
Km [2]: 1103.2 µM
kcat/Km [2]: 14600 M⁻¹ s⁻¹

B4: Triticum aestivum (wheat) EPSP synthase DGT-7 variant DGT-7 v6 (G→A) (Triticum aestivum; G167A) (protein)
chain: B2 chain with G113A
Km [2]: 538.2 µM
kcat/Km [2]: 16100 M⁻¹ s⁻¹

B5: Triticum aestivum (wheat) EPSP synthase DGT-7 variant DGT-7 v8 (T→I, P→S; TIPS) (Triticum aestivum; P172S/T168I) (protein)
chain: B2 chain with T114I, P118S
notes: TIPS double mutant
Km [2]: 60.5 µM
